Measurements taken from patent US20240117018A1.

Tests used:
Test in all cases: cell-based or functional assay
[1] = target: HIV-1 Env of pseudovirus 191084 B7-19 (HIV-1)
[2] = target: HIV-1 Env of pseudovirus R1166.c01 (HIV-1)
[3] = target: HIV-1 Env of pseudovirus C1080.c03 (HIV-1)
[4] = target: HIV-1 Env of pseudovirus 3103.v3.c10 (HIV-1)
[5] = target: HIV-1 Env of pseudovirus 3817.v2.c59 (HIV-1)
[6] = target: HIV-1 Env of pseudovirus C3347.c11 (HIV-1)
[7] = target: HIV-1 Env of pseudovirus P0402_c2_11 (HIV-1)
[8] = target: HIV-1 Env of pseudovirus 0815.v3.c3 (HIV-1)
[9] = target: HIV-1 Env of pseudovirus 211-9 (HIV-1)
[10] = target: HIV-1 Env of pseudovirus T257-31 (HIV-1)
[11] = target: HIV-1 Env of pseudovirus 231966.c02 (HIV-1)
[12] = target: HIV-1 Env of pseudovirus C4118.c09 (HIV-1)
[13] = target: HIV-1 Env of pseudovirus 191955_A11 (HIV-1)
[14] = target: HIV-1 Env of pseudovirus BJOX028000.10.3 (HIV-1)
[15] = target: HIV-1 Env of pseudovirus R3265.c06 (HIV-1)
[16] = target: HIV-1 Env of pseudovirus 235-47 (HIV-1)
[17] = target: HIV-1 Env of pseudovirus BJOX009000.02.4 (HIV-1)
[18] = target: HIV-1 Env of pseudovirus P1981_C5_3 (HIV-1)
[19] = target: HIV-1 Env of pseudovirus 6540.v4.c1 (HIV-1)
[20] = target: HIV-1 Env of pseudovirus T251-18 (HIV-1)
[21] = target: HIV-1 Env of pseudovirus 263-8 (HIV-1)
[22] = target: HIV-1 Env of pseudovirus R2184.c04 (HIV-1)
[23] = target: HIV-1 Env of pseudovirus 6480.v4.c25 (HIV-1)
[24] = target: HIV-1 Env of pseudovirus X1632_S2_B10 (HIV-1)
[25] = target: HIV-1 Env of pseudovirus X2131_C1_B5 (HIV-1)
[26] = target: HIV-1 Env of pseudovirus 6041.v3.c23 (HIV-1)
[27] = target: HIV-1 Env of pseudovirus X2088_c9 (HIV-1)
[28] = target: HIV-1 Env of pseudovirus T255-34 (HIV-1)
[29] = target: HIV-1 Env of pseudovirus BJOX025000.01.1 (HIV-1)
[30] = target: HIV-1 Env of pseudovirus 928-28 (HIV-1)
[31] = target: HIV-1 Env of pseudovirus BJOX010000.06.2 (HIV-1)
[32] = target: HIV-1 Env of pseudovirus 89-F1_2_25 (HIV-1)
[33] = target: HIV-1 Env of pseudovirus 3301.v1.c24 (HIV-1)
[34] = target: HIV-1 Env of pseudovirus X1193_c1 (HIV-1)
[35] = target: HIV-1 Env of pseudovirus BJOX015000.11.5 (HIV-1)
[36] = target: HIV-1 Env of pseudovirus 6811.v7.c18 (HIV-1)

Q: For N49P19 (antibody), which neutralization IC50 [1] is on record?
A: 0.357 µg/mL

Q: What about the neutralization IC80 [1] of the same substance?
A: 1.34 µg/mL

Q: And the neutralization MPI [1]?
A: 100

Q: And the neutralization IC50 [2]?
A: 0.629 µg/mL

Q: What about the neutralization IC80 [2] of the same substance?
A: 2.69 µg/mL

Q: What about the neutralization MPI [2] of the same substance?
A: 100

Q: And the neutralization IC50 [3]?
A: 0.682 µg/mL

Q: What about the neutralization IC80 [3] of the same substance?
A: 3.05 µg/mL

Q: What about the neutralization MPI [3] of the same substance?
A: 100

Q: And the neutralization IC50 [4]?
A: > 50 µg/mL

Q: What about the neutralization IC80 [4] of the same substance?
A: > 50 µg/mL

Q: And the neutralization MPI [4]?
A: 0

Q: What about the neutralization IC50 [5] of the same substance?
A: > 50 µg/mL

Q: And the neutralization IC80 [5]?
A: > 50 µg/mL

Q: What about the neutralization MPI [5] of the same substance?
A: 26

Q: And the neutralization IC50 [6]?
A: 3.94 µg/mL

Q: What about the neutralization IC80 [6] of the same substance?
A: 25.7 µg/mL

Q: What about the neutralization MPI [6] of the same substance?
A: 87

Q: And the neutralization IC50 [7]?
A: 0.448 µg/mL

Q: What about the neutralization IC80 [7] of the same substance?
A: 2.63 µg/mL

Q: What about the neutralization MPI [7] of the same substance?
A: 100

Q: What about the neutralization IC50 [8] of the same substance?
A: 0.176 µg/mL

Q: What about the neutralization IC80 [8] of the same substance?
A: 0.743 µg/mL

Q: And the neutralization MPI [8]?
A: 100

Q: What about the neutralization IC50 [9] of the same substance?
A: 3.23 µg/mL

Q: And the neutralization IC80 [9]?
A: 19 µg/mL

Q: What about the neutralization MPI [9] of the same substance?
A: 93

Q: What about the neutralization IC50 [10] of the same substance?
A: 0.661 µg/mL

Q: What about the neutralization IC80 [10] of the same substance?
A: 3 µg/mL

Q: And the neutralization MPI [10]?
A: 100

Q: What about the neutralization IC50 [11] of the same substance?
A: 0.653 µg/mL

Q: And the neutralization IC80 [11]?
A: 4.55 µg/mL

Q: And the neutralization MPI [11]?
A: 100

Q: What about the neutralization IC50 [12] of the same substance?
A: 0.386 µg/mL

Q: And the neutralization IC80 [12]?
A: 1.36 µg/mL

Q: And the neutralization MPI [12]?
A: 100

Q: And the neutralization IC50 [13]?
A: > 50 µg/mL

Q: What about the neutralization IC80 [13] of the same substance?
A: > 50 µg/mL

Q: And the neutralization MPI [13]?
A: 16

Q: What about the neutralization IC50 [14] of the same substance?
A: 7 µg/mL

Q: What about the neutralization IC80 [14] of the same substance?
A: > 50 µg/mL

Q: What about the neutralization MPI [14] of the same substance?
A: 80

Q: And the neutralization IC50 [15]?
A: 0.634 µg/mL

Q: What about the neutralization IC80 [15] of the same substance?
A: 2.73 µg/mL

Q: And the neutralization MPI [15]?
A: 100

Q: What about the neutralization IC50 [16] of the same substance?
A: 0.44 µg/mL

Q: And the neutralization IC80 [16]?
A: 3.23 µg/mL

Q: What about the neutralization MPI [16] of the same substance?
A: 89

Q: And the neutralization IC50 [17]?
A: 3.66 µg/mL

Q: And the neutralization IC80 [17]?
A: 25.6 µg/mL

Q: What about the neutralization MPI [17] of the same substance?
A: 87

Q: And the neutralization IC50 [18]?
A: 20.2 µg/mL

Q: And the neutralization IC80 [18]?
A: > 50 µg/mL

Q: What about the neutralization MPI [18] of the same substance?
A: 68

Q: What about the neutralization IC50 [19] of the same substance?
A: 11.2 µg/mL

Q: And the neutralization IC80 [19]?
A: > 50 µg/mL

Q: What about the neutralization MPI [19] of the same substance?
A: 63

Q: What about the neutralization IC50 [20] of the same substance?
A: 0.938 µg/mL

Q: And the neutralization IC80 [20]?
A: 4.2 µg/mL

Q: And the neutralization MPI [20]?
A: 100

Q: And the neutralization IC50 [21]?
A: 0.344 µg/mL

Q: And the neutralization IC80 [21]?
A: 1.51 µg/mL

Q: What about the neutralization MPI [21] of the same substance?
A: 99

Q: And the neutralization IC50 [22]?
A: 0.132 µg/mL

Q: And the neutralization IC80 [22]?
A: 0.445 µg/mL

Q: And the neutralization MPI [22]?
A: 100

Q: And the neutralization IC50 [23]?
A: 3.04 µg/mL

Q: What about the neutralization IC80 [23] of the same substance?
A: 28.2 µg/mL

Q: And the neutralization MPI [23]?
A: 87

Q: What about the neutralization IC50 [24] of the same substance?
A: > 50 µg/mL

Q: And the neutralization IC80 [24]?
A: > 50 µg/mL

Q: And the neutralization MPI [24]?
A: 14

Q: What about the neutralization IC50 [25] of the same substance?
A: 2.52 µg/mL

Q: What about the neutralization IC80 [25] of the same substance?
A: 14.4 µg/mL

Q: And the neutralization MPI [25]?
A: 91

Q: And the neutralization IC50 [26]?
A: > 50 µg/mL

Q: And the neutralization IC80 [26]?
A: > 50 µg/mL

Q: And the neutralization MPI [26]?
A: 32

Q: And the neutralization IC50 [27]?
A: 1.4 µg/mL

Q: What about the neutralization IC80 [27] of the same substance?
A: 3.76 µg/mL

Q: What about the neutralization MPI [27] of the same substance?
A: 99

Q: And the neutralization IC50 [28]?
A: 0.948 µg/mL

Q: What about the neutralization IC80 [28] of the same substance?
A: 6.22 µg/mL

Q: What about the neutralization MPI [28] of the same substance?
A: 97

Q: What about the neutralization IC50 [29] of the same substance?
A: > 50 µg/mL

Q: And the neutralization IC80 [29]?
A: > 50 µg/mL

Q: What about the neutralization MPI [29] of the same substance?
A: 24

Q: And the neutralization IC50 [30]?
A: 2.73 µg/mL

Q: And the neutralization IC80 [30]?
A: 9.63 µg/mL

Q: What about the neutralization MPI [30] of the same substance?
A: 97

Q: And the neutralization IC50 [31]?
A: 4.16 µg/mL

Q: What about the neutralization IC80 [31] of the same substance?
A: 19.1 µg/mL

Q: What about the neutralization MPI [31] of the same substance?
A: 96

Q: And the neutralization IC50 [32]?
A: > 50 µg/mL

Q: What about the neutralization IC80 [32] of the same substance?
A: > 50 µg/mL

Q: What about the neutralization MPI [32] of the same substance?
A: 7

Q: And the neutralization IC50 [33]?
A: 0.302 µg/mL

Q: And the neutralization IC80 [33]?
A: 1.42 µg/mL

Q: What about the neutralization MPI [33] of the same substance?
A: 98

Q: What about the neutralization IC50 [34] of the same substance?
A: 0.54 µg/mL

Q: And the neutralization IC80 [34]?
A: 3.15 µg/mL

Q: And the neutralization MPI [34]?
A: 99

Q: What about the neutralization IC50 [35] of the same substance?
A: 0.756 µg/mL

Q: And the neutralization IC80 [35]?
A: 3.17 µg/mL

Q: And the neutralization MPI [35]?
A: 99

Q: And the neutralization IC50 [36]?
A: 1.3 µg/mL

Q: And the neutralization IC80 [36]?
A: 4.71 µg/mL

Q: And the neutralization MPI [36]?
A: 97
